Reference: the supplement of paper PMC10567573

B1: NECAB1 (parent)
chain: FSPNSPQFNVSGPGLLEEDNQWMT
B2: NCK2 (parent)
chain: YVERKNSLKKGSLVKNLKDTLGLG

Variants of: B1
Experiment: protein stability index of a GFP-peptide fusion (GPS, HEK-293T) (PSI 1-6); higher = more stable
Conditions: c terminus: a fixed tail appended
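Note: lentivirally expressed fusions sorted by FACS into six bins by GFP to DsRed ratio, PSI derived from sequencing read proportions per bin multiplied by bin number.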

Protein stability index, by site and new letter:
Q21: G 2.54; D 1.97; M 1.84; C 2.14; N 1.84; H 2.57; R 2.28; Y 2.29; V 1.72; F 1.87; L 2.08; I 1.95; S 2.15; P 2; K 3.06; E 3.69; A 2.45; T 2.41
D19: Q 2.5; Y 2.44; P 2.03; R 1.94; T 2.1; V 2.1; N 2.57; W 2.02; S 2.33
T24: S 3.27; C 2.91; V 2.36; G 3.01; A 2.82; M 2.4; P 2.69; L 3; R 2.97; Y 2.57; F 1.88; E 3.92; H 2.99; Q 3.04; I 2.69; N 2.84; W 1.69; K 2.37; D 3.57
W22: N 4.07; M 3.39; V 3.79; A 3.96; D 4.65; Q 4.03; T 3.83; L 3.71; R 3.93; H 3.84; G 3.85; I 3.67; P 4.21; K 3.54; E 4.42; Y 3.49; C 4.1; S 4.03; F 3.59
M23: W 2.35; R 3.08; D 4.65; K 4.15; P 2.87; A 3.66; Y 2.77; T 3; C 2.67; Q 3.43; I 2.45; E 4.15; F 2.44; N 3.45; L 2.76; S 3.5; V 2.71; H 2.8; G 3.66
N20: F 2.71; Q 2.84; G 2.79; Y 2.26; S 2.68; T 3.19; K 2.54; R 2.88; P 3.28; L 2.27; V 2.58; A 3.29; H 2.62; D 3.86; C 2.63; M 2.54; I 2.24; E 3.73; W 2.46

Variants of: B2
Experiment: as above
Conditions: c terminus: a fixed tail appended

Protein stability index: each site, then its substitutions
G11: R 2.32; H 2.02; K 2.9; W 1.93; P 2.11; Q 3.13; E 2.72; Y 1.59; C 2.09; M 1.8; A 2.18; V 2.42; F 2.69; N 2.4; I 1.68; L 1.87; D 2.44; T 2.06; S 2.43
L13: D 2.8; C 1.97; A 3.01
Y1: R 3.18; G 3.92; A 3.59; Q 4.01; M 3.64; N 3.71; C 3.41; E 4.06; L 3.28; I 3.03; W 2.29; S 3.3; T 3.65; V 3.41; P 3.8; D 4.13; F 1.81; K 3.86; H 4.01
K10: A 2.11; W 1.78; Y 1.68; V 2.04; Q 2.59; T 1.82; D 2.56; N 1.83; G 1.93; H 1.82; I 1.89; M 1.94; L 2.17; E 2.29; R 2.17; P 1.88; C 2.29; S 2.31; F 2.48
R4: S 2.26; E 2.42; P 2.2; C 1.83; A 2.23; T 1.78; L 1.57; G 2.19; I 1.81; Y 1.33; K 2.46; Q 2.2; V 1.78; H 2.6; D 2.67; W 1.57; M 1.62; N 2.48; F 1.52
K9: Y 2.28; W 2.37; V 2.48; D 2.37; E 2.59; A 2.15; N 2.32; P 2.05; H 2.1; T 2.17; R 2.54; F 3.15; L 3.07; G 2.39; C 1.94; I 2.51; M 1.92; Q 2.32; S 2.84
L8: G 3.27; I 2.27; A 2.42; D 2.92; H 3.11; N 2.55; V 2.16; C 2.41; T 2.58; R 2.09; Y 2.14; Q 2.88; M 2.57; W 1.89; E 2.96; P 2.8; S 1.99; K 2.47; F 2.33
V2: F 2.44; M 2.81; Q 3.39; R 3.41; S 2.94; T 3.44; H 2.66; K 3.67; I 2.84; P 3.81; G 3.19; N 3.59; W 2.49; Y 3.01; E 4.17; A 3.09; D 3.38; L 2.71; C 2.47
S7: F 2.66; H 2.02; D 2.57; C 2.22; L 2.43; K 2.84; N 2.07; E 2.9; V 1.94; Q 2.15; A 2.29; G 1.99; I 1.86; Y 1.74; T 2.16; R 2.22; M 1.88; P 1.82; W 3.27
E3: S 2.23; I 2.1; L 2.07; F 2.01; G 1.41; Q 1.96; C 1.83; D 1.89; Y 1.63; T 1.78; P 1.65; V 1.9; W 1.96; M 2.11; N 2.04; H 1.72; R 2.52; K 2.23; A 1.66
S12: R 2.22; I 2.46; N 2.63; E 2.4; D 2.79; W 2.17; C 2.13; L 1.64; T 2.01; K 2.71; M 1.75; Q 2.27; V 2.38; F 2.53; G 2.07; H 1.98; Y 2.19; A 2.22; P 2.31
N6: K 2.67; M 2.29; P 2.28; W 2.32; G 2.38; D 2.74; Y 1.64; I 2.39; V 1.58; T 1.94; L 1.1; A 2.24; R 2.25; C 1.73; Q 2.53; E 2.85; F 1.58; H 2.61; S 2.1
K5: D 2.26; C 1.75; Y 2.84; G 2.34; W 2.57; F 2.58; L 1.51; A 2.12; Q 2.39; H 2.13; S 2.24; T 2.02; N 2.4; V 2.2; I 1.99; R 2.52; M 1.79; P 1.89; E 2.92
